Reference: article PMC6900781

Experiments:
[1] = target: GFP-LacI-dCENP-C [Drosophila melanogaster]; assay: LacO-tethering recruitment assay (HA immunofluorescence intensity at LacO); conditions: parent: 1.2; read off a plot
[2] = target: CAL1-GFP-LacI [Drosophila melanogaster]; assay: as above; conditions: parent: 0.18; read off a plot

Row | Substance | response (normalized to GFP) [1] | response (normalized to GFP) [2]
1 | HA-dCENP-C mutant L1357E; L1406E [Drosophila melanogaster] / GFP-LacI-dCENP-C [Drosophila melanogaster] chain 1 L1357E, chain 1 L1406E | 0.15 | 
2 | HA-dCENP-C mutant L1357E; L1406E [Drosophila melanogaster] / CAL1-GFP-LacI [Drosophila melanogaster] chain 1 L1357E, chain 1 L1406E |  | 0.07
